This note sets out measurements from patent US20210024639A1 (AGOMAB THERAPEUTICS, published 2021).

Assay [1] deals with T1, mouse MET extracellular domain (ECD) (mouse, UniProt P16056 25-931).
T1 construct: range 1-931; recombinant ECD; also called mMET; mouse MET ECD
Kind of assay: ELISA, periplasmic Fab on MET ECD. As to the method:
(§1) Fab-expressing phages from the libraries described above were produced according to standard phage display protocols. For selection, phages were first adsorbed to immobilized recombinant human MET ECD, washed, and then eluted using trypsin. After two cycles of selection with human MET ECD, two other cycles were performed in the same fashion using mouse MET ECD. In parallel, we also selected phages alternating a human MET ECD cycle with a mouse MET ECD cycle, for a total of four cycles. Phages selected by the two approaches were pooled together and then used to infect TG1 E. coli. Individual colonies were isolated and secretion of Fabs was induced using IPTG (Fermentas). The Fab-containing periplasmic fraction of bacteria was collected and tested for its ability to bind human and mouse MET ECD by Surface Plasmon Resonance (SPR). Human or mouse MET ECD was immobilized on a CM-5 chip using amine coupling in sodium acetate buffer (GE Healthcare). The Fab-containing periplasmic extracts were loaded into a BIACORE 3000 apparatus (GE Healthcare) with a flow rate of 30 μl/min. The Fab off-rates (koff) were measured over a two minute period. Binding of Fabs to human and mouse MET was further characterized by ELISA using MET ECD in solid phase and periplasmic crude extract in solution.
(§2) TABLE 7 Fabs binding to both human MET (hMET) and mouse MET (mMET). Fabs are grouped in families based on their VH CDR3 sequence. Binding of Fabs to human and mouse MET ECD was determined by Surface Plasmon Resonance (SPR) and by ELISA. SPR values represent the koff (s⁻¹). ELISA values represent the Optical Density (OD) at 450 nm (AU, arbitrary units). Both SPR and ELISA were performed using crude periplasmic extracts. Fab concentration in the extract was not determined. Values are the mean of three independent measurements.
For orientation: In an ELISA, binding on a coated surface is turned into a signal by an enzyme label.

Assay [2] deals with T2, human MET extracellular domain (ECD) (human, UniProt P08581 25-932).
T2 construct: range 1-932; recombinant ECD; also called hMET; human MET ECD
T2 sequence (P08581 25-932 limits assumed, form in doubt): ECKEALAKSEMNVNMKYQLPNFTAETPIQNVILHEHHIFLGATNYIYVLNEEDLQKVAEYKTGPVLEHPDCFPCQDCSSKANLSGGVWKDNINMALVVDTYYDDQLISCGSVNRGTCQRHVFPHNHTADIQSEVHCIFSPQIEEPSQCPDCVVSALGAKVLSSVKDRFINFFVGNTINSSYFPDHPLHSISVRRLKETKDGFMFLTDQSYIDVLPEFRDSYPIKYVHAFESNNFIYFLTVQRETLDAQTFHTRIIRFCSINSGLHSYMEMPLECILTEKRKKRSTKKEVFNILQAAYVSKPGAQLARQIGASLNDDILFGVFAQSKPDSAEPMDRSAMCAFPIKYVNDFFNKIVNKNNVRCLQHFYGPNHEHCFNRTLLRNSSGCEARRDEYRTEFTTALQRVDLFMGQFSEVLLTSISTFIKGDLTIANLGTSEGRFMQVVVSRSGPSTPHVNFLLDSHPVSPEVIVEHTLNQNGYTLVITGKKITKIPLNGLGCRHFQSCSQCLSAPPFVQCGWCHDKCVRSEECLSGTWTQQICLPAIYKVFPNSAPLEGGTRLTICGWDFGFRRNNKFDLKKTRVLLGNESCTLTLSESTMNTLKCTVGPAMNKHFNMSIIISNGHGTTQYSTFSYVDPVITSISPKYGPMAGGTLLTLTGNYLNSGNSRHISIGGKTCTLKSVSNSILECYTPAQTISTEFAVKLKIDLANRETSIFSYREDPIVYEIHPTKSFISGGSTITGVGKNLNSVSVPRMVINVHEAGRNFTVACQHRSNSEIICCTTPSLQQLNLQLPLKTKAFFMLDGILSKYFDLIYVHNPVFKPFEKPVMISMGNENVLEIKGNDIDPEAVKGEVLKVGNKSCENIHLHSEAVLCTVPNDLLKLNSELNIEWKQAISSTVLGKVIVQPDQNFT
The assay is described as follows: ELISA, periplasmic Fab on MET ECD. How it is done: as §1, §2

T1 sequence (P16056 25-931 limits assumed, form in doubt): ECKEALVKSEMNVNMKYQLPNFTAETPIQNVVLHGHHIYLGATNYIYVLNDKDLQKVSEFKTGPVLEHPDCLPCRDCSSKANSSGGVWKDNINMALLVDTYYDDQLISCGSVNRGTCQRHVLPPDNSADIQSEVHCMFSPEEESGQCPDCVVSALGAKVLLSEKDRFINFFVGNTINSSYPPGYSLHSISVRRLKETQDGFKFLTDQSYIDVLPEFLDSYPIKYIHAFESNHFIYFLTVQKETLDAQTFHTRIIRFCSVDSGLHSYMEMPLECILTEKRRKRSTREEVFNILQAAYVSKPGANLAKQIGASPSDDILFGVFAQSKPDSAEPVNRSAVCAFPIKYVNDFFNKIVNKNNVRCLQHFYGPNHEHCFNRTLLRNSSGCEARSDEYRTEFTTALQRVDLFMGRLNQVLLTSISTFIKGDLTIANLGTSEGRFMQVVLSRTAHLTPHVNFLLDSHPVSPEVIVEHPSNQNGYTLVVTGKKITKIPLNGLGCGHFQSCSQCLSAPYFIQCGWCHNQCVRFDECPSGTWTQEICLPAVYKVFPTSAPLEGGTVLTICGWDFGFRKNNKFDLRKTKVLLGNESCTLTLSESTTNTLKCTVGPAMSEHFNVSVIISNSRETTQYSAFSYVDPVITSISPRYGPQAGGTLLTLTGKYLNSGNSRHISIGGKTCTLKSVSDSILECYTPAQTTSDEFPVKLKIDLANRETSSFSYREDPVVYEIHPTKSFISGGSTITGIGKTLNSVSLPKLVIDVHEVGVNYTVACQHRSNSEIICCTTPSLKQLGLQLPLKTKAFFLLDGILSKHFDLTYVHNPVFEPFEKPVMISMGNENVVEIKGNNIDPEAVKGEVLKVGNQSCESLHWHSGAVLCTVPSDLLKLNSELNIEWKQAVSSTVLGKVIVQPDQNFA

B1: Fab 74C8 (Fab, V domains shown)
VH: EVQLVESGGGLVQPGGSLRLSCAASGFTFRNYHMSWVRQVPGKGFEWISDINSAGGSTYYADSVKGRFTISRDNAKNTLYLEMNSLKPEDTALYYCARVNVWGVNYWGKGTLVSVSS
VL: QTVVTQEPSLSVSPGGTVTLTCGLSSGSVTTSNYPGWFQQTPGQAPRTLIYNTNSRHSGVPSRFSGSISGNKAALTITGAQPEDEADYYCSLYPGSYTNVFGGGTHLTVL
notes: llama Fab (VH-CH1, lambda VL-CL) with MYC flag, crude periplasmic extract
On to B1, for which the “ELISA OD450” value in assay [1] stood at 2.92 AU; in assay [2] it was 2.98 AU.

B2: Fab 71G2 (Fab, V domains shown)
VH: EVQLQESGGGLVQPGGSLRLSCAASGFTFSIYDMSWVRQAPGKGLEWVSTINSDGSSTSYVDSVKGRFTISRDNAKNTLYLQMNSLKPEDTAVYYCAKVYGSTWDVGPMGYGMDYWGKGTLVTVSS
VL: SSALTQPSALSVSLGQTARITCQGGSLGSSYAHWYQQKPGQAPVLVIYGDDSRPSGIPERFSGSSSGGTATLTISGAQAEDEDDYYCQSTDSSGNTVFGGGTRLTVL
notes: as for B1
As for B2, the “ELISA OD450” value was 0.543 AU in assay [1] and 0.561 AU in assay [2].

B3: Fab 72F8 (Fab, V domains shown)
VH: ELQLVESGGGLVQPGGSLRLSCAASGFTFSNYVMSWVRQAPGKGLEWVSDTNSGGSTSYADSVKGRFTISRDNAKNTLYLQMNSLKPEDTALYYCARSFFYGMNYWGKGTQVTVSS
VL: QSALTQPPSLSASPGSSVRLTCTLSSGNNIGSYDISWYQQKAGSPPRYLLNYYTDSRKHQDSGVPSRFSGSKDASANAGLLLISGLQPEDEADYYCSAYKSGSYRWVFGGGTHVTVL
notes: as for B1
Consider B3, for which the “ELISA OD450” value was determined as 3.08 AU in assay [1] and 3.38 AU in assay [2].

B4: Fab 76G7 (Fab, V domains shown)
VH: QVQLVESGGNLVQPGGSLRLSCAASGFTFSNYYMSWVRQAPGKGLEWVSDIYSDGSTTWYSDSVKGRFTISRDNAKNTLSLQMNSLKSEDTAVYYCARVKIYPGGYDAWGQGTQVTVSS
VL: QAGLTQPPSVSGSPGKTVTISCAGNSSDVGYGNYVSWYQQFPGMAPKLLIYLVNKRASGITDRFSGSKSGNTASLTISGLQSEDEADYYCASYTGSNNIVFGGGTHLTVL
notes: as for B1
On to B4, for which the entries for the “ELISA OD450” value in assay [1] and in assay [2] were 3.08 AU and 3.2 AU, respectively.
